± gives the uncertainty stated by the source.
Test: self-splicing fitness, log relative to wild type (ln ratio); higher = more splicing; Tetrahymena group I intron in knt gene, E. coli kanamycin selection, DiMSum; sequences stand for … in CUCUCU…GGAGGGAAAAGUUAUCAGGCAUGCACCUGGUAGCUAGUCUUUAAACCAAUAGAUUGCAUCGGUUUAAAAGGCAAGACCGUCAAAUUGCGGGAAAGGGGUCAACAGCCGUUCAGUACCAAGUCUCAGGGGAAACUUUGAGAUGGCCUUGCAAAGGGUAUGGUAAUAAGCUGACGGACAUGGUCCUAACCACGCAGCCAAGUCCUAAGUCAACAGAUCUUCUGUUGAUAUGGAUGCAGUUCACAGACUAAAUGUCGGUCGGGGAAGAUGUAUUCUUCUCAUAAGAUAUAGUCGGACCUCUCCUUAAUGGGAGCUAGCGGAUGAAGUGAUGCAACACUGGAGCCGCUGGGAACUAAUUUGUAUGCGAAAGUAUAUUGAUUAGUUUUGGAGUACUCGUGGUCG
Method in brief: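 DiMSum derived fitness as the error-weighted combination of fold changes across replicates, kanamycin versus no kanamycin, normalised to wild type. E. coli BL21(DE3) held the library, which randomised all eight P1ex-region intron nucleotides within the knt kanamycin-resistance gene on pET-22b(+). Six replicate transformations grew overnight at 37°C or 30°C on LB agar with or without 25 μg/mL kanamycin, also containing 100 μg/mL carbenicillin, 50 μM IPTG and 0.2% rhamnose, and pooled colonies were amplicon-sequenced on an Illumina HiSeq 2500.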

| Sequence | self-splicing fitness (ln) (30 °C) | self-splicing fitness (ln) (37 °C) |
| --- | --- | --- |
| UCGGAGCAAUAUUACGAAAC | -2.87 ± 0.28 |  |
| UCGGAGCAAUAUUACGAAUG | -4.16 ± 0.36 | -2.15 ± 0.27 |
| UCGGAGCAAUAUUACGAGCG | -2.48 ± 0.23 | -0.586 ± 0.23 |
| UCGGAGCAAUAUUACGAGUA | -3.11 ± 0.42 | -1.89 ± 0.31 |
| UCGGAGCAAUAUUACGAUAG | -3.29 ± 0.32 | -2.83 ± 0.35 |
| UCGGAGCAAUAUUACGCAAG |  | -2.23 ± 0.43 |
| UCGGAGCAAUAUUACGCAGG | -2.57 ± 0.44 | -2.28 ± 0.43 |
| UCGGAGCAAUAUUACGCUGG | -3.78 ± 0.46 | -1.26 ± 0.17 |
| UCGGAGCAAUAUUACGGAGA | -3.67 ± 0.21 | -1.49 ± 0.14 |
| UCGGAGCAAUAUUACGGCUU | -3.05 ± 0.32 | -1.45 ± 0.35 |
| UCGGAGCAAUAUUACGGGUG | -3.03 ± 0.24 | -2.94 ± 0.2 |
| UCGGAGCAAUAUUACGGGUU | -2.86 ± 0.41 |  |
| UCGGAGCAAUAUUACGGUAC | -3.19 ± 0.29 | -3.59 ± 0.36 |
| UCGGAGCAAUAUUACGGUUU |  | -1.87 ± 0.34 |
| UCGGAGCAAUAUUACGUACU |  | -2.6 ± 0.34 |
| UCGGAGCAAUAUUACGUAGU |  | -0.551 ± 0.29 |
| UCGGAGCAAUAUUACGUGAC | -1.95 ± 0.34 | -2.14 ± 0.46 |
| UCGGAGCAAUAUUACGUGGU | -3.59 ± 0.39 | -1.72 ± 0.34 |
| UCGUAGCAAUAUUACGAAGG | -3.63 ± 0.47 |  |
| UCGUAGCAAUAUUACGAAUG | -2.01 ± 0.29 |  |
| UCGUAGCAAUAUUACGACAU | -3.861 ± 0.035 | -2.69 ± 0.043 |

| Sequence | self-splicing fitness (ln) (30 °C) | self-splicing fitness (ln) (37 °C) |
| --- | --- | --- |
| UCGUAGCAAUAUUACGACUG | -1.02 ± 0.2 | -2.28 ± 0.34 |
| UCGUAGCAAUAUUACGAUAU | -3.38 ± 0.31 | -1.85 ± 0.37 |
| UCGUAGCAAUAUUACGAUGC | -4.1 ± 0.33 | -2.27 ± 0.27 |
| UCGUAGCAAUAUUACGCAAA | -3.4 ± 0.31 | -1.09 ± 0.31 |
| UCGUAGCAAUAUUACGCAUU | -3.24 ± 0.23 | -1.84 ± 0.15 |
| UCGUAGCAAUAUUACGCCUU | -2.21 ± 0.13 | -0.619 ± 0.13 |
| UCGUAGCAAUAUUACGGAAA | -3.38 ± 0.35 | -2.72 ± 0.31 |
| UCGUAGCAAUAUUACGGAUC | -3.32 ± 0.45 | -2.85 ± 0.48 |
| UCGUAGCAAUAUUACGGCAA | -2.52 ± 0.36 | -0.888 ± 0.27 |
| UCGUAGCAAUAUUACGGCGG | -2.41 ± 0.14 | -0.883 ± 0.15 |
| UCGUAGCAAUAUUACGGCGU | -3.46 ± 0.34 | -1.6 ± 0.22 |
| UCGUAGCAAUAUUACGGCUG | -3.29 ± 0.13 | -1.38 ± 0.14 |
| UCGUAGCAAUAUUACGGGCG | -2.12 ± 0.18 | -1.11 ± 0.17 |
| UCGUAGCAAUAUUACGUACA | -1.71 ± 0.24 | -1.73 ± 0.26 |
| UCGUAGCAAUAUUACGUACU | -2.04 ± 0.23 | -1.27 ± 0.17 |
| UCGUAGCAAUAUUACGUGCG | -2.44 ± 0.14 | -0.347 ± 0.14 |
| UCGUAGCAAUAUUACGUGGG | -3.54 ± 0.24 | -3.92 ± 0.28 |
| UCGUAGCAAUAUUACGUUAA | -1.59 ± 0.18 | -1.16 ± 0.17 |
| UCGUAGCAAUAUUACGUUCA | -1.39 ± 0.097 | -0.421 ± 0.11 |
| UCUAAGCAAUAUUACGACAC | -3.7 ± 0.18 | -2.82 ± 0.17 |

— the supplement of paper PMC7877785
